Experimental data reported in patent US20140336113A1 (VANDERBILT UNIVERSITY, published 2014).
Blank lines part the entries; values can stand above or below the binder they belong to. Positions of bridges follow the written chain, without caps; N, C: chain ends. No end group written: not given here. *: point of attachment. Biotin = O=C1N[C@H]2[C@H](CS[C@H]2CCCCC(=O)*)N1

Tests used:
importin beta = target: T1, importin beta (human, UniProt Q14974 1-876); experiment: pull-down from human Jurkat T cell lysate, immunoblot
T1 construct: also called imp beta; nuclear transport shuttle for SREBPs
Procedure: (§1) Cell-penetrating peptide cSN50.1 (2986 Da) and other peptides listed in Table 1 were synthesized and prepared as previously described (Liu, D., et al., (2009) Mol Ther 17, 796-802). Biotinylated NTM peptides and their constituent modules were prepared in the same manner, with biotin added to the amino terminus at the last step of synthesis. When necessary, a 5-7 hydrophilic amino acid tag was added to peptide modules to facilitate solubility. For i.p. administration, 200 μl aliquots containing 0.4 or 0.7 mg of cSN50.1 in saline was injected at 8 h or 12 h intervals. Alternatively, 10 mg cSN50.1 in 100 μl sterile H₂O was administered subcutaneously from ALZET Osmotic Pumps (1007D) placed aseptically in interscapular areas. A bolus of 0.7 mg cSN50.1 in 100 μl saline was administered i.p. at weekly pump changes to assure steady NTM bioavailability. Dosage schedules were developed based on previous experimental protocols and half-life studies. Control mice received sterile saline in the same volumes as NTM. Importins pull-down assay. Ten nmols of biotinylated NTM peptides or their constituent modules depicted in Table 1 (SN50, cSN50.1, N50, cN50.1, SSHR-1, SSHR-2) were incubated overnight at 4° C. with 1.5 mg of whole cell extract from unstimulated human Jurkat T cells or serum-starved human HepG2 cells lysed in binding buffer (10 mM HEPES at pH 7.9, 150 mM NaCl, 10 mM KCl, 2.5 mM MgCl₂, 1 mM EGTA, 1 mM DTT, 0.1% NP-40, 1% protease inhibitor cocktail). Lysate was cleared by centrifugation (16,000×g for 30 min at 4° C.) and transferred to a fresh tube containing high capacity Neutravidin beads (Thermo Scientific). After 4 h, beads were separated from lysate/peptide mixture by centrifugation (30 s at 1,000×g) and washed 3 times with binding buffer and 2 times with PBS. Beads were boiled for 10 min in SDS loading buffer, and protein content was analyzed by immunoblotting with a panel of anti-importins alpha and beta antibodies and anti-GAPDH (Abcam) as a cellular protein control.

GAPDH = target: T2, GAPDH (human, UniProt P04406 2-335); experiment: as above
T2 construct: Cellular protein control of the pull-down; also called control cytoplasmic marker protein GAPDH; control protein GAPDH
Procedure: as §1

importin alpha 5 = target: T3, importin alpha 5 (human, UniProt P52294 1-538); experiment: pull-down from cell lysate, immunoblot
T3 construct: also called importins alpha; importins/karyopherins alpha

importin alpha 1 = importin alpha 1 (human, UniProt P52292 2-529); experiment: pull-down from cell lysate, immunoblot

T1 sequence (Q14974 whole entry): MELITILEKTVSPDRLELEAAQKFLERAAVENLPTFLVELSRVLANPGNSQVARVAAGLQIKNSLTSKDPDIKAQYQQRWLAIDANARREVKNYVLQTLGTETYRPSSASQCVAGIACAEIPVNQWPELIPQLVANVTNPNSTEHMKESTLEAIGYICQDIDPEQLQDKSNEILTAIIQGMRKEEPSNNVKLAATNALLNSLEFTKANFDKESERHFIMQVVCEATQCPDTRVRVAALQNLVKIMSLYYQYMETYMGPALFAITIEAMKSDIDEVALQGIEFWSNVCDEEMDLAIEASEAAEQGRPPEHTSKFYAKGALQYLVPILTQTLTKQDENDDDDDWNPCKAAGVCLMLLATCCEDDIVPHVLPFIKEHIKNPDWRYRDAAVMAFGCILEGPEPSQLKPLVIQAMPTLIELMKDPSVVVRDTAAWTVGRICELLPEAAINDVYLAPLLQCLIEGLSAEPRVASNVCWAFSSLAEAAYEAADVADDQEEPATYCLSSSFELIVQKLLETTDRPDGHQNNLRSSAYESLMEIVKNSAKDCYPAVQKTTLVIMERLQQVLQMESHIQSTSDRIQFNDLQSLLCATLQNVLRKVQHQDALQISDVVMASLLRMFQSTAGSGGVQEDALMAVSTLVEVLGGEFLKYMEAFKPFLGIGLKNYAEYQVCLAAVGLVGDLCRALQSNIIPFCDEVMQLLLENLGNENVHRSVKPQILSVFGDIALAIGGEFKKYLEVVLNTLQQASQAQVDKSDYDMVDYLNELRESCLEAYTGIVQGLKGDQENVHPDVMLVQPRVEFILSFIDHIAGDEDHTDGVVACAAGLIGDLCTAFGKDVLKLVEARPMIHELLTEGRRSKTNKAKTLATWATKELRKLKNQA
T2 sequence (P04406 2-335 limits assumed): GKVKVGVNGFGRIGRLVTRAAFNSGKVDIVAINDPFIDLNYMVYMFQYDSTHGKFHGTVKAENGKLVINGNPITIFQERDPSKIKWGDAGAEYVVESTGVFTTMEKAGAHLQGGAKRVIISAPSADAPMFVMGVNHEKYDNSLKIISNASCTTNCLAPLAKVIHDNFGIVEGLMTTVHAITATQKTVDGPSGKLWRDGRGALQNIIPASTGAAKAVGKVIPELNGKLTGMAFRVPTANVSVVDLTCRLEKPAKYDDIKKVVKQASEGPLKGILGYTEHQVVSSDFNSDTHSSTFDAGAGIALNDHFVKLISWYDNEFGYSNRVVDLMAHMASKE

- binding result (importin beta): no binding
B1: biotinylated cN50.1 peptide (peptide)
peptide: Biotin-CVQRKRQKLMPC
modifications: disulfide 1-12 (inferred)
notes: NLS segment of cSN50.1, no SSHR

- binding result (GAPDH): no binding
B2: biotinylated cSN50.1 peptide (peptide)
peptide: Biotin-AAVALLPAVLLALLAPCVQRKRQKLMPC
modifications: disulfide 17-28 (inferred)
notes: the N-biotinylated version was used in the pull-down assays; also called NTM; full-length biotinylated NTM

- binding result (importin alpha 5): no binding
- binding result (importin alpha 1): no binding
B3: biotinylated cSN50.1 Beta peptide (peptide)
peptide: Biotin-AAVALLPAVLLALLAPCVQRDEQKLMPC
modifications: disulfide 17-28 (inferred)
notes: cSN50.1 with lysine 21 replaced by aspartic acid and arginine 22 replaced by glutamic acid

- binding result (GAPDH): no binding
B4: biotinylated SN50 peptide (peptide)
peptide: Biotin-AAVALLPAVLLALLAPVQRKRQKLMP
notes: also called NTM; full-length biotinylated NTM

- binding result (importin beta): no binding
B5: biotinylated N50 peptide (peptide)
peptide: Biotin-VQRKRQKLMP
notes: NLS segment of SN50, no SSHR
